The values below come from PMC5992102.

Data set [1] deals with Dnmt3b-C (C-terminal catalytic domain of mouse Dnmt3b) (mouse).
A further data set has as its target Dnmt3b-C (mouse, UniProt O88509 558-859). Briefly: nitrocellulose filter binding.

As for “Dnmt3L (from UniProt Q9CWR8 1-421) (natural protein)”, the DNA methylation activity of Dnmt3b-C in the presence of Dnmt3L (fold activation) in data set [1] was 6 fold.

B1: Cy5-labeled 30-mer, one CpG site (dsDNA)
DNA 1: GAAGCTGGGACTTCCGGGAGGAGAGTGCAA
DNA 2: TTGCACTCTCCTCCCGGAAGTCCCAGCTTC
As to B1, the binding result with Dnmt3b-C was “binds”.
